B1: Compound 19 (peptide)
peptide: YAQGTFTSDYSIYLDKKAAHDFVEWLLSA
HELM: PEPTIDE1{Y.[Aib].Q.G.T.F.T.S.D.Y.S.I.Y.L.D.K.K.A.A.H.D.F.V.E.W.L.L.S.A.[am]}$$$$V2.0
SMILES: CC[C@H](C)[C@H](NC(=O)[C@H](CO)NC(=O)[C@H](Cc1ccc(O)cc1)NC(=O)[C@H](CC(=O)O)NC(=O)[C@H](CO)NC(=O)[C@@H](NC(=O)[C@H](Cc1ccccc1)NC(=O)[C@@H](NC(=O)CNC(=O)[C@H](CCC(N)=O)NC(=O)C(C)(C)NC(=O)[C@@H](N)Cc1ccc(O)cc1)[C@@H](C)O)[C@@H](C)O)C(=O)N[C@@H](Cc1ccc(O)cc1)C(=O)N[C@@H](CC(C)C)C(=O)N[C@@H](CC(=O)O)C(=O)N[C@@H](CCCCN)C(=O)N[C@@H](CCCCN)C(=O)N[C@@H](C)C(=O)N[C@@H](C)C(=O)N[C@@H](Cc1c[nH]cn1)C(=O)N[C@@H](CC(=O)O)C(=O)N[C@@H](Cc1ccccc1)C(=O)N[C@H](C(=O)N[C@@H](CCC(=O)O)C(=O)N[C@@H](Cc1c[nH]c2ccccc12)C(=O)N[C@@H](CC(C)C)C(=O)N[C@@H](CC(C)C)C(=O)N[C@@H](CO)C(=O)N[C@@H](C)C(N)=O)C(C)C
B2: Compound 18 (peptide)
peptide: YAQGTFTSDYSIYLESKAAHDFVEWLLSA
HELM: PEPTIDE1{Y.[Aib].Q.G.T.F.T.S.D.Y.S.I.Y.L.E.S.K.A.A.H.D.F.V.E.W.L.L.S.A.[am]}$$$$V2.0
SMILES: CC[C@H](C)[C@H](NC(=O)[C@H](CO)NC(=O)[C@H](Cc1ccc(O)cc1)NC(=O)[C@H](CC(=O)O)NC(=O)[C@H](CO)NC(=O)[C@@H](NC(=O)[C@H](Cc1ccccc1)NC(=O)[C@@H](NC(=O)CNC(=O)[C@H](CCC(N)=O)NC(=O)C(C)(C)NC(=O)[C@@H](N)Cc1ccc(O)cc1)[C@@H](C)O)[C@@H](C)O)C(=O)N[C@@H](Cc1ccc(O)cc1)C(=O)N[C@@H](CC(C)C)C(=O)N[C@@H](CCC(=O)O)C(=O)N[C@@H](CO)C(=O)N[C@@H](CCCCN)C(=O)N[C@@H](C)C(=O)N[C@@H](C)C(=O)N[C@@H](Cc1c[nH]cn1)C(=O)N[C@@H](CC(=O)O)C(=O)N[C@@H](Cc1ccccc1)C(=O)N[C@H](C(=O)N[C@@H](CCC(=O)O)C(=O)N[C@@H](Cc1c[nH]c2ccccc12)C(=O)N[C@@H](CC(C)C)C(=O)N[C@@H](CC(C)C)C(=O)N[C@@H](CO)C(=O)N[C@@H](C)C(N)=O)C(C)C
B3: Compound 12 (peptide)
peptide: YAQGTFTSDYSIYLDSKAAHDFVEWLLRA
HELM: PEPTIDE1{Y.[Aib].Q.G.T.F.T.S.D.Y.S.I.Y.L.D.S.K.A.A.H.D.F.V.E.W.L.L.R.A.[am]}$$$$V2.0
SMILES: CC[C@H](C)[C@H](NC(=O)[C@H](CO)NC(=O)[C@H](Cc1ccc(O)cc1)NC(=O)[C@H](CC(=O)O)NC(=O)[C@H](CO)NC(=O)[C@@H](NC(=O)[C@H](Cc1ccccc1)NC(=O)[C@@H](NC(=O)CNC(=O)[C@H](CCC(N)=O)NC(=O)C(C)(C)NC(=O)[C@@H](N)Cc1ccc(O)cc1)[C@@H](C)O)[C@@H](C)O)C(=O)N[C@@H](Cc1ccc(O)cc1)C(=O)N[C@@H](CC(C)C)C(=O)N[C@@H](CC(=O)O)C(=O)N[C@@H](CO)C(=O)N[C@@H](CCCCN)C(=O)N[C@@H](C)C(=O)N[C@@H](C)C(=O)N[C@@H](Cc1c[nH]cn1)C(=O)N[C@@H](CC(=O)O)C(=O)N[C@@H](Cc1ccccc1)C(=O)N[C@H](C(=O)N[C@@H](CCC(=O)O)C(=O)N[C@@H](Cc1c[nH]c2ccccc12)C(=O)N[C@@H](CC(C)C)C(=O)N[C@@H](CC(C)C)C(=O)N[C@@H](CCCNC(=N)N)C(=O)N[C@@H](C)C(N)=O)C(C)C
B4: Compound 17 (peptide)
peptide: YAQGTFTSDYSIYLDEKAAKDFVEWLLSA
HELM: PEPTIDE1{Y.[Aib].Q.G.T.F.T.S.D.Y.S.I.Y.L.D.E.K.A.A.K.D.F.V.E.W.L.L.S.A.[am]}$$$$V2.0
SMILES: CC[C@H](C)[C@H](NC(=O)[C@H](CO)NC(=O)[C@H](Cc1ccc(O)cc1)NC(=O)[C@H](CC(=O)O)NC(=O)[C@H](CO)NC(=O)[C@@H](NC(=O)[C@H](Cc1ccccc1)NC(=O)[C@@H](NC(=O)CNC(=O)[C@H](CCC(N)=O)NC(=O)C(C)(C)NC(=O)[C@@H](N)Cc1ccc(O)cc1)[C@@H](C)O)[C@@H](C)O)C(=O)N[C@@H](Cc1ccc(O)cc1)C(=O)N[C@@H](CC(C)C)C(=O)N[C@@H](CC(=O)O)C(=O)N[C@@H](CCC(=O)O)C(=O)N[C@@H](CCCCN)C(=O)N[C@@H](C)C(=O)N[C@@H](C)C(=O)N[C@@H](CCCCN)C(=O)N[C@@H](CC(=O)O)C(=O)N[C@@H](Cc1ccccc1)C(=O)N[C@H](C(=O)N[C@@H](CCC(=O)O)C(=O)N[C@@H](Cc1c[nH]c2ccccc12)C(=O)N[C@@H](CC(C)C)C(=O)N[C@@H](CC(C)C)C(=O)N[C@@H](CO)C(=O)N[C@@H](C)C(N)=O)C(C)C
B5: Compound 13 (peptide)
peptide: YAQGTFTSDYSIYLDSKAAHDFVEWLLSAGPSSGAPPPS
HELM: PEPTIDE1{Y.[Aib].Q.G.T.F.T.S.D.Y.S.I.Y.L.D.S.K.A.A.H.D.F.V.E.W.L.L.S.A.G.P.S.S.G.A.P.P.P.S.[am]}$$$$V2.0
SMILES: CC[C@H](C)[C@H](NC(=O)[C@H](CO)NC(=O)[C@H](Cc1ccc(O)cc1)NC(=O)[C@H](CC(=O)O)NC(=O)[C@H](CO)NC(=O)[C@@H](NC(=O)[C@H](Cc1ccccc1)NC(=O)[C@@H](NC(=O)CNC(=O)[C@H](CCC(N)=O)NC(=O)C(C)(C)NC(=O)[C@@H](N)Cc1ccc(O)cc1)[C@@H](C)O)[C@@H](C)O)C(=O)N[C@@H](Cc1ccc(O)cc1)C(=O)N[C@@H](CC(C)C)C(=O)N[C@@H](CC(=O)O)C(=O)N[C@@H](CO)C(=O)N[C@@H](CCCCN)C(=O)N[C@@H](C)C(=O)N[C@@H](C)C(=O)N[C@@H](Cc1c[nH]cn1)C(=O)N[C@@H](CC(=O)O)C(=O)N[C@@H](Cc1ccccc1)C(=O)N[C@H](C(=O)N[C@@H](CCC(=O)O)C(=O)N[C@@H](Cc1c[nH]c2ccccc12)C(=O)N[C@@H](CC(C)C)C(=O)N[C@@H](CC(C)C)C(=O)N[C@@H](CO)C(=O)N[C@@H](C)C(=O)NCC(=O)N1CCC[C@H]1C(=O)N[C@@H](CO)C(=O)N[C@@H](CO)C(=O)NCC(=O)N[C@@H](C)C(=O)N1CCC[C@H]1C(=O)N1CCC[C@H]1C(=O)N1CCC[C@H]1C(=O)N[C@@H](CO)C(N)=O)C(C)C
B6: Compound 14 (peptide)
peptide: YAQGTFTSDYSIYLEKKAAHDFVEWLLSA
HELM: PEPTIDE1{Y.[Aib].Q.G.T.F.T.S.D.Y.S.I.Y.L.E.K.K.A.A.H.D.F.V.E.W.L.L.S.A.[am]}$$$$V2.0
SMILES: CC[C@H](C)[C@H](NC(=O)[C@H](CO)NC(=O)[C@H](Cc1ccc(O)cc1)NC(=O)[C@H](CC(=O)O)NC(=O)[C@H](CO)NC(=O)[C@@H](NC(=O)[C@H](Cc1ccccc1)NC(=O)[C@@H](NC(=O)CNC(=O)[C@H](CCC(N)=O)NC(=O)C(C)(C)NC(=O)[C@@H](N)Cc1ccc(O)cc1)[C@@H](C)O)[C@@H](C)O)C(=O)N[C@@H](Cc1ccc(O)cc1)C(=O)N[C@@H](CC(C)C)C(=O)N[C@@H](CCC(=O)O)C(=O)N[C@@H](CCCCN)C(=O)N[C@@H](CCCCN)C(=O)N[C@@H](C)C(=O)N[C@@H](C)C(=O)N[C@@H](Cc1c[nH]cn1)C(=O)N[C@@H](CC(=O)O)C(=O)N[C@@H](Cc1ccccc1)C(=O)N[C@H](C(=O)N[C@@H](CCC(=O)O)C(=O)N[C@@H](Cc1c[nH]c2ccccc12)C(=O)N[C@@H](CC(C)C)C(=O)N[C@@H](CC(C)C)C(=O)N[C@@H](CO)C(=O)N[C@@H](C)C(N)=O)C(C)C

What follows are binders tested against T1, human GIP receptor (human, UniProt P48546 22-466) (assay: cell-based or functional assay).
T1 sequence: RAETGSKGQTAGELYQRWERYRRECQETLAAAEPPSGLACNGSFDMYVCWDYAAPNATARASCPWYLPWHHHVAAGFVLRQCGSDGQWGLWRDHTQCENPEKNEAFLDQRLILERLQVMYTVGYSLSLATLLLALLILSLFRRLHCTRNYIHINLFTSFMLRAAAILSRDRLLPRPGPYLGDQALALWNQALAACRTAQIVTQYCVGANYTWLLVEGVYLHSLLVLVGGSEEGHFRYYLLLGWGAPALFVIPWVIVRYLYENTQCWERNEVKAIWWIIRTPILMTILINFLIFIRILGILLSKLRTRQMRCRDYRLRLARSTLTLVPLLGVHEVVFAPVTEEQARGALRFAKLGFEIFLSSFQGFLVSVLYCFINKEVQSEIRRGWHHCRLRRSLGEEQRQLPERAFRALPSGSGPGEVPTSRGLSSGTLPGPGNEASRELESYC

Row | Binder | EC50 (cAMP induction) [pM]
1 | B1 | 32
2 | B2 | 70
3 | B3 | 84
4 | B4 | 91
5 | B5 | 83
6 | B6 | 60

The binders below were run against T2, human glucagon-like peptide 1 receptor (human, UniProt P43220 24-463) (assay: cell-based or functional assay).

Row | Binder | EC50 (cAMP induction) [pM]
7 | B1 | 13
8 | B2 | 21
9 | B3 | 12
10 | B4 | 11
11 | B5 | 9.9
12 | B6 | 13

What follows are binders tested against T3, human glucagon receptor (human, UniProt P47871 26-477) (assay: cell-based or functional assay).
T3 sequence (P47871 26-477): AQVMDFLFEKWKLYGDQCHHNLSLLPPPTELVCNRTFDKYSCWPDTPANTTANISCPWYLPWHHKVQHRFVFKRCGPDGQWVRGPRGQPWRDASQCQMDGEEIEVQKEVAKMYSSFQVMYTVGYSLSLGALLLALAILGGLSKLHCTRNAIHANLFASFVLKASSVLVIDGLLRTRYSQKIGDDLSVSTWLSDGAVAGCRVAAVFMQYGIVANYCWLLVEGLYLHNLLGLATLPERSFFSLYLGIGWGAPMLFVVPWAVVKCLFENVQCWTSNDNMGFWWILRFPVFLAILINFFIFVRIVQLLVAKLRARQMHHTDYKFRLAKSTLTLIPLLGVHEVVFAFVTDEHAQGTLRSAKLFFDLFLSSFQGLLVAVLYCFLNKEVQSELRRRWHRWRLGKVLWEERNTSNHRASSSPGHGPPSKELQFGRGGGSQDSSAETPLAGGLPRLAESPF

Row | Binder | EC50 (cAMP induction) [pM]
13 | B1 | 24
14 | B2 | 150
15 | B3 | 76
16 | B4 | 160
17 | B5 | 240
18 | B6 | 100

Target: T1, human GIP receptor
Assay: cell-based or functional assay
Remark: another data set of the same source

Row | Binder | EC50 (cAMP induction) [pM]
19 | B1 | 13
20 | B2 | 21
21 | B3 | 12
22 | B4 | 13
23 | B5 | 10
24 | B6 | 13

Target: T2, human glucagon-like peptide 1 receptor
Assay: cell-based or functional assay
Remark: another data set of the same source

Row | Binder | EC50 (cAMP induction) [pM]
25 | B1 | 24
26 | B2 | 150
27 | B3 | 76
28 | B4 | 160
29 | B5 | 240
30 | B6 | 100

Target: T3, human glucagon receptor
Assay: cell-based or functional assay
Remark: another data set of the same source

Row | Binder | EC50 (cAMP induction) [pM]
31 | B1 | 24
32 | B2 | 150
33 | B3 | 76
34 | B4 | 160
35 | B5 | 240
36 | B6 | 100

Reference: patent publication US10131702B2, “Glucagon-GLP-1-GIP triple agonist compounds” (priority 2013, dated 2018)
